The record followed here is PMC6041257.

B1: GLI1 (transfected, wild type) [human] / SUFU (transfected, HEK293T) [not stated] (parent)
chain 1: MFNSMTPPPISSYGEPCCLRPLPSQGAPSVGTEGLSGPPFCHQANLMSGPHSYGPARETNSCTEGPLFSSPRSAVKLTKKRALSISPLSDASLDLQTVIRTSPSSLVAFINSRCTSPGGSYGHLSIGTMSPSLGFPAQMNHQKGPSPSFGVQPCGPHDSARGGMIPHPQSRGPFPTCQLKSELDMLVGKCREEPLEGDMSSPNSTGIQDPLLGMLDGREDLEREEKREPESVYETDCRWDGCSQEFDSQEQLVHHINSEHIHGERKEFVCHWGGCSRELRPFKAQYMLVVHMRRHTGEKPHKCTFEGCRKSYSRLENLKTHLRSHTGEKPYMCEHEGCSKAFSNASDRAKHQNRTHSNEKPYVCKLPGCTKRYTDPSSLRKHVKTVHGPDAHVTKRHRGDGPLPRAPSISTVEPKREREGGPIREESRLTVPEGAMKPQPSPGAQSSCSSDHSPAGSAANTDSGVEMTGNAGGSTEDLSSLDEGPCIAGTGLSTLRRLENLRLDQLHQLRPIGTRGLKLPSLSHTGTTVSRRVGPPVSLERRSSSSSSISSAYTVSRRSSLASPFPPGSPPENGASSLPGLMPAQHYLLRARYASARGGGTSPTAASSLDRIGGLPMPPWRSRAEYPGYNPNAGVTRRASDPAQAADRPAPARVQRFKSLGCVHTPPTVAGGGQNFDPYLPTSVYSPQPPSITENAAMDARGLQEEPEVGTSMVGSGLNPYMDFPPTDTLGYGGPEGAAAEPYGARGPGSLPLGPGPPTNYGPNPCPQQASYPDPTQETWGEFPSHSGLYPGPKALGGTYSQCPRLEHYGQVQVKPEQGCPVGSDSTGLAPCLNAHPSEGPPHPQPLFSHYPQPSPPQYLQSGPYTQPPPDYLPSEPRPCLDFDSPTHSTGQLKAQLVCNYVQSQQELLWEGGGREDAPAQEPSYQSPKFLGGSQVSPSRAKAPVNTYGPGFGPNLPNHKSGSYPTPSPCHENFVVGANRASHRAAAPPRLLPPLPTCYGPLKVGGTNPSCGHPEVGRLGGGPALYPPPEGQVCNPLDSLDLDNTQLDFVAILDEPQGLSPPPSHDQRGSSGHTPPPSGPPNMAVGNMSVLLRSLPGETEFLNSSA
chain 2: MAELRPSGAPGPTAPPAPGPTAPPAFASLFPPGLHAIYGECRRLYPDQPNPLQVTAIVKYWLGGPDPLDYVSMYRNVGSPSANIPEHWHYISFGLSDLYGDNRVHEFTGTDGPSGFGFELTFRLKRETGESAPPTWPAELMQGLARYVFQSENTFCSGDHVSWHSPLDNSESRIQHMLLTEDPQMQPVQTPFGVVTFLQIVGVCTEELHSAQQWNGQGILELLRTVPIAGGPWLITDMRRGETIFEIDPHLQERVDKGIETDGSNLSGVSAKCAWDDLSRPPEDDEDSRSICIGTQPRRLSGKDTEQIRETLRRGLEINSKPVLPPINPQRQNGLAHDRAPSRKDSLESDSSTAIIPHELIRTRQLESVHLKFNQESGALIPLCLRGRLLHGRHFTYKSITGDMAITFVSTGVEGAFATEEHPYAAHGPWLQILLTEEFVEKMLEDLEDLTSPEEFKLPKEYSWPEKKLKVSILPDVVFDSPLH

In the first assay the parent is B1. In words: co-immunoprecipitation (IP: HA (SUFU-HA), IB: Flag (GLI1-Flag)). Particulars: with SUFU (transfected, HEK293T); HEK293T cells; SUFU-HA + GLI1-Flag + MEKK3-Flag co-expressed; parent: 3.
Take chain 1 S201D S204D S243D S968D T1074D S1078D: the screen value turned out to be 3.9.

The same assay, now with this note: with SUFU (transfected, HEK293T); HEK293T cells; SUFU-HA + GLI1-Flag + Vector (no MEKK3); parent: 1.
chain 1 S201D S204D S243D S968D T1074D S1078D: the ratio to parent was 3.
